T1: Recombinant Human IL-23 (human, UniProt Q9NPF7 20-189; P29460 23-328)
T1 construct: Recombinant soluble cytokine; also called hIL-23
T1 sequence (looked up) 1: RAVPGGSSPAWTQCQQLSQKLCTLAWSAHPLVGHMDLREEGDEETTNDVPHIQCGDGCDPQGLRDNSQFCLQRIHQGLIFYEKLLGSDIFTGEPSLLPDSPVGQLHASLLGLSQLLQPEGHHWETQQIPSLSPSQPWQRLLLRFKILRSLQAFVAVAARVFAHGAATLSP
T1 sequence (looked up) 2: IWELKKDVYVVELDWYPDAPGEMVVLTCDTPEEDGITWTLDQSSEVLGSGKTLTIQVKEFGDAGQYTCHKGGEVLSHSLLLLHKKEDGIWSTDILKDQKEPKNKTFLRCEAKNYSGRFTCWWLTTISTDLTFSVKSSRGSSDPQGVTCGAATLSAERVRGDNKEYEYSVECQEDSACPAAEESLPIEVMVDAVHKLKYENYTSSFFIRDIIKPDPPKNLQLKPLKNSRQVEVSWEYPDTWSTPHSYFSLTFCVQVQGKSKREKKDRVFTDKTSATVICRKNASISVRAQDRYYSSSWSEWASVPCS

B1: IL-23 antibody clone 202 (antibody, human IgG1, kappa, L234A L235A, V domains shown)
VH: EVQLLESGGGLVQPGGSLRLSCAASGYTFTDQTIHWVRQAPGKGLEWIGYIYPRDDSPKYNENFKGRATLSADKSKNTAYLQMNSLRAEDTAVYYCAIPDRSGYAWFIYWGQGTTVTVSS
VL: EIVMTQSPATLSVSPGERATLSCKASRDVAIAVAWYQQKPGQAPRLLLYWASTRHTGIPARFSGSGSRTEFTLTISSLQSEDFAVYYCHQYSSYPFTFGGGTKVEIKR
notes: Full antibody format
B2: IL-23 antibody clone 203 (antibody, human IgG1, kappa, L234A L235A, V domains shown)
VH: EVQLLESGGGLVQPGGSLRLSCAASGYTFTDQTIHWVRQAPGKGLEWIGYIYPRDDSPKYNENFKGRATLSADKSKNTAYLQMNSLRAEDTAVYYCAIPDRSGYAWFIYWGQGTTVTVSS
VL: EIVMTQSPATLSVSPGERATLSCKASRDVAIAVAWYQQKPGQAPRLLLFWASTRHTGIPARFSGSGSRTEFTLTISSLQSEDFAVYYCHQYSSYPFTFGGGTKVEIKR
notes: Full antibody format
B3: Reference Antibody 1 (antibody, human IgG1, kappa, L234A L235A, V domains shown)
VH: QVQLVQSGAEVKKPGSSVKVSCKASGYTFTDQTIHWMRQAPGQGLEWIGYIYPRDDSPKYNENFKGKVTITADKSTSTAYMELSSLRSEDTAVYYCAIPDRSGYAWFIYWGQGTLVTVSS
VL: DIQMTQSPSSLSASVGDRVTITCKASRDVAIAVAWYQQKPGKVPKLLIYWASTRHTGVPSRFSGSGSRTDFTLTISSLQPEDVADYFCHQYSSYPFTFGSGTKLEIKR
notes: also called anti-human IL-23p19 antibody; parental antibody
B4: IL-23 antibody clone 107 (antibody, human IgG1, kappa, L234A L235A, V domains shown)
VH: QVQLVQSGAEVKKPGSSVKVSCKASGYTFTAQTIHWMRQAPGQGLEWIGYIYPRDDTPKYNPNFKGKVTITADKSTSTAYMELSSLRSEDTAVYYCAIPDRSGYAWFDYWGQGTLVTVSS
VL: DIQMTQSPSSLSASVGDRVTITCKASRDVAIAVAWYQQKPGKVPKLLIYWASTRHTGVPSRFSGSGSRTDFTLTISSLQPEDVADYFCHQYSSYPFTFGSGTKLEIKR

Assays:
Recombinant Human IL-23 [1] = molecular target: T1, Recombinant Human IL-23; assay: SPR (Biacore 8K), mAb captured on anti-human IgG, human IL-23 as analyte, 25 C, 1:1 model
Description: (§1) Reference Antibody 1 was used as a comparator. […] Anti-IL23 mAb constructs (diluted to 2 μg/mL) were captured onto flow cell 2 (active) for 60 sec at a flow rate of 10 μL/min. Recombinant Human IL-23 was prepared at concentrations of 0, 1.23, 3.7, 11.11, 33.33, 100 nM and injected over flow cell 1 (reference) and flow cell 2 (active) for 180 sec at a flow rate of 50 μL/min. Samples were injected in a multi-cycle manner over freshly captured mAb, by regenerating the capture surfaces with injection of 10 mM glycine, pH 1.5 for 30 sec at a flow rate of 30 μL/min. A 1:1 kinetic binding model was utilized to determine the apparent association (kₐ) and dissociation […] rate constants. Their ratio provides the apparent equilibrium dissociation constant or affinity constant ([…]).

Recombinant Human IL-23 [2] = molecular target: T1, Recombinant Human IL-23; assay: cell-based or functional assay
Recombinant Human IL-23 [3] = molecular target: T1, Recombinant Human IL-23; assay: cell-based or functional assay; remark: listed apart in the source
Recombinant Human IL-23 [4] = molecular target: T1, Recombinant Human IL-23; assay: SPR (Biacore 8K), mAb captured on anti-human IgG, human IL-23 as analyte, 25 C, 1:1 model; below the limit of detection
Description: as §1

Recombinant Human IL-23 [5] = molecular target: T1, Recombinant Human IL-23; assay: SPR (Biacore 8K), mAb captured on goat anti-human IgG CM5 chip, human IL-23 as analyte, 25 C, 1:1 model
Description: as §1

Recombinant Human IL-23 [6] = molecular target: T1, Recombinant Human IL-23; assay: cell-based or functional assay; remark: listed apart in the source

Binder | kon (Recombinant Human IL-23 [1]) | Relative IC50, inhibition of IL-23-induced release of IL-17 from human PBMCs (Recombinant Human IL-23 [2]) | Relative IC50, inhibition of IL-23-induced activation of STAT3 (luciferase reporter, HEK 293F IL-23R+/IL-12Rb1+ cells) (Recombinant Human IL-23 [3]) | koff (Recombinant Human IL-23 [4]) | Kd (Recombinant Human IL-23 [5]) | Relative IC50, inhibition of IL-23-induced phosphorylation of STAT3 in DB cells (pSTAT3 sandwich ELISA) (Recombinant Human IL-23 [6])
B1 | 210000 M⁻¹ s⁻¹ | 0.79 relative to Reference Antibody 1 | 0.76 relative to Reference Antibody 1 | < 1e-06 s⁻¹ | – | –
B2 | 271000 M⁻¹ s⁻¹ | 0.78 relative to Reference Antibody 1 | 0.66 relative to Reference Antibody 1 | < 1e-06 s⁻¹ | < 6 pM | –
B3 | 167000 M⁻¹ s⁻¹ | 1 relative to Reference Antibody 1 | 1 relative to Reference Antibody 1 | < 1e-06 s⁻¹ | – | 1 relative to Reference Antibody 1
B4 | 187000 M⁻¹ s⁻¹ | 0.67 relative to Reference Antibody 1 | 0.57 relative to Reference Antibody 1 | < 1e-06 s⁻¹ | – | 0.51 relative to Reference Antibody 1
